Source: US9200045B2, “Small molecule-dependent inteins and uses thereof” (President and Fellows of Harvard College, priority 2011, dated 2015)

Legend:
GFP [1] = conditions: HEK293, 37° C.
Gli3T = assay: 4-HT-dependent intein splicing in the Gli3T context in HEK293 cells; format: cell-based, human; conditions: 1 μM 4-HT
From the text: (§1) p3XFlag-CMV-14 (Sigma) vectors with Gli1-intein (2-4 and 3-2), and Gli3T-intein (2-4 and 3-2) sequences were previously described (Yuen et al., 2006). p3XFlag-CMV-14 mCherry-intein (2-4 and 3-2) vectors were constructed by cloning the 2-4 and 3-2 intein sequences into the pRSET-B mCherry vector provided by Professor Roger Tsien (University of California at San Diego). The mCherry-intein 2-4 and mCherry-intein 3-2 sequences were then amplified using oligonucleotides introducing a 5′ EcoRI site and a 3′ BamHI site and ligated into EcoRI- and BamHI-digested p3XFlag-CMV-14 vector. 30R3-1 intein sequence and 37R3-2 intein sequence were amplified using the following oligonucleotides compatible with mCherry, Gli1, or Gli3 contexts.

GFP [2] = conditions: yeast
Gli1 = assay: 4-HT-dependent intein splicing in the Gli1 context in HEK293 cells; format: cell-based, human; conditions: 1 μM 4-HT
From the text: as §1

[3] = system: GFP, mCherry, Gli1, and Gli3T; assay: Intein splicing across all four proteins tested in mammalian cells; conditions: no 4-HT
Description: Western blots were performed using Nu-PAGE 12% Bis-Tris gels (Invitrogen) in 3-(Nmorpholino) propanesulfonic acid (MOPS)-sodium dodecyl sulfate (SDS) buffer (Invitrogen). SDSpolyacrylamide gel electrophoresis (PAGE) and Western blotting were performed using standard protocols. Gels were transferred onto polyvinylidene fluoride (PDVF) membranes (Millipore). Western blots were processed using a mouse anti-FLAG antibody (Sigma) as the primary antibody and a secondary Alexa Fluor 800-conjugated goat anti-mouse antibody (Li-cor Biosciences), then visualized and quantitated using an Odyssey imager (Li-cor Biosciences). […]
The inteins were inserted into mCherry, a red fluorescent protein, in place of Thr 113, the residue in mCherry that corresponds to the Cys residue used for intein insertion in GFP. As in the case of GFP, this placement positions the intein near the mid-point of a β-strand and abolishes mCherry fluorescence until splicing takes place (vide infra). […]
The splicing characteristics of the newly evolved inteins was investigated in the contexts of two additional mammalian proteins, Gli1 and Gli3T. […] The resulting constructs were introduced into HEK293 cells and splicing was evaluated by Western blot as described above.

mCherry = assay: 4-HT-dependent intein splicing in the mCherry context in HEK293 cells; format: cell-based, human; conditions: for spliced mCherry protein: HEK293, 37° C., 1 μM 4-HT
From the text: as §1
HEK293 cells were grown in 10 cm dishes or 6-well plates and transfected with relevant mammalian vectors using Effectene. After growth in the absence of 4-HT or in the presence of 1 μM 4-HT for 24 hours, cells were trypsinized and resuspended in 500 μL of phosphate buffered saline with 1% FBS and 75 U/mL DNase (New England Biolabs). Cell fluorescence analysis was carried out on a BD LSRII cell analyzer.

[4] = HEK293, at 24 hours or 12 hours

Molecule	fraction of the total spliced GFP after 24 hours that was present after 12 hours (GFP [1]; 1 μM 4-HT) [%]	spliced GFP (GFP [1]; after 24 hours, 1 μM 4-HT) [%]	spliced Gli3T protein (Gli3T; HEK293, after 12 hours) [%]	spliced Gli3T protein (Gli3T; HEK293, after 24 hours) [%]	splicing in the absence of 4-HT (background splicing) (GFP [2]; 30° C., after 24 hours, no 4-HT) [%]	spliced protein (GFP [2]; 37° C., 1 hour after 4-HT treatment)	Gli1 protein spliced (Gli1; HEK293, after 12 hours) [%]	Gli1 protein spliced (Gli1; HEK293, after 24 hours) [%]	background splicing in the absence of 4-HT (GFP [1]; GFP context, no 4-HT)	fold higher GFP splicing efficiency than the original 2-4 intein (GFP [1]; after 24 hours, 1 μM 4-HT) [fold]	fold higher GFP splicing efficiency than the original 3-2 intein (GFP [1]; after 24 hours, 1 μM 4-HT) [fold]	background splicing in the absence of 4-HT [3]	spliced mCherry protein (mCherry; after 12 hours) [%]	spliced mCherry protein (mCherry; after 24 hours) [%]	fold higher percentage of spliced mCherry than that of 3-2 intein (mCherry; [4]) [fold]	fold higher percentage of spliced mCherry than that of the 2-4 intein (mCherry; [4]) [fold]
3-2: previously evolved parental 4-HT-dependent intein, derived from the 2-4 intein (protein) CLAEGTRIFDPVTGTTHRIEDVVDGRKPIHVVAVAKDGTLLARPVVSWFDQGTRDVIGLRIAGGAIVWATPDHKVLTEYGWRAAGELRKGDRVAGPGGSGNSLALSLTADQMVSALLDAEPPILYSEYDPTSPFSEASMMGLLTNLADRELVHMINWAKRVPGFVDLTLHDQAHLLECAWLEILMIGLVWRSMEHPGKLLFAPNLLLDRNQGKCVEGMVEIFDMLLATSSRFRMMNLQGEEFVCLKSIILLNSGVYTFLSSTLKSLEEKDHIHRALDKITDTLIHLMAKAGLTLQQQHQRLAQLLLILSHIRHMSNKGMEHLYSMKYTNVVPLYDLLLEMLDAHRLHAGGSGASRVQAFADALDDKFLHDMLAEELRYSVIREVLPTRRARTFDLEVEELHTLVAEGVVVHNC	45	33	10	18	15	did not generate significant amounts of spliced protein	22	32	–	–	–	–	–	–	–	–
37R3-2: evolved 4-HT-dependent intein, clone from 37° C. evolution, Round 3 (protein) CLAEGTRIFDPVTGTTHRIEDVVDGRKPIHVVAAAKDGTLLARPVVSWFDQGTRDVIGLRIAGGATVWATPDHKVLTEYGWRAAGELRKGDRVAGPGGSGNSLALSLTADQMVSALLDAEPPILYSEYDPTSPFSEASMMGLLTNLADRELVHMINWAKRVPGFVDLTLHDQAHLLERAWLEILMIGLVWRSMEHPGKLLFAPNLLLDRNQGKCVEGMVEIFDMLLATSSRFRMMNLQGEEFVCLKSIILLNSGVYTFLSSTLKSLEEKDHIHRALDKITDTLIHLMAKAGLTLQQQHQRLAQLLLILSHIRHMSNKGMEHLYSMKYKNVVPLYDLLLEMLDAHRLHAGGSGASRVQAFADALDDKFLHDMLAEELRYSVIREVLPTRRARTFDLEVEELHTLVAEGVVVHNC	–	73	–	–	–	–	–	–	not observed	3.8	2.2	very low and often was not detectable	43	72	~3	~5
